Test results published in patent publication US20200360469A1 (UNIVERSITY OF THE SCIENCES, published 2020).

Biological target: full-length (FL) BRAF^G469A, 6x-HIS/BRAF^G469A/FLAG (human, UniProt P15056 2-766)
Assay: cell-based or functional assay

Chain of full-length (FL) BRAF^G469A, 6x-HIS/BRAF^G469A/FLAG (P15056 2-766 G469A): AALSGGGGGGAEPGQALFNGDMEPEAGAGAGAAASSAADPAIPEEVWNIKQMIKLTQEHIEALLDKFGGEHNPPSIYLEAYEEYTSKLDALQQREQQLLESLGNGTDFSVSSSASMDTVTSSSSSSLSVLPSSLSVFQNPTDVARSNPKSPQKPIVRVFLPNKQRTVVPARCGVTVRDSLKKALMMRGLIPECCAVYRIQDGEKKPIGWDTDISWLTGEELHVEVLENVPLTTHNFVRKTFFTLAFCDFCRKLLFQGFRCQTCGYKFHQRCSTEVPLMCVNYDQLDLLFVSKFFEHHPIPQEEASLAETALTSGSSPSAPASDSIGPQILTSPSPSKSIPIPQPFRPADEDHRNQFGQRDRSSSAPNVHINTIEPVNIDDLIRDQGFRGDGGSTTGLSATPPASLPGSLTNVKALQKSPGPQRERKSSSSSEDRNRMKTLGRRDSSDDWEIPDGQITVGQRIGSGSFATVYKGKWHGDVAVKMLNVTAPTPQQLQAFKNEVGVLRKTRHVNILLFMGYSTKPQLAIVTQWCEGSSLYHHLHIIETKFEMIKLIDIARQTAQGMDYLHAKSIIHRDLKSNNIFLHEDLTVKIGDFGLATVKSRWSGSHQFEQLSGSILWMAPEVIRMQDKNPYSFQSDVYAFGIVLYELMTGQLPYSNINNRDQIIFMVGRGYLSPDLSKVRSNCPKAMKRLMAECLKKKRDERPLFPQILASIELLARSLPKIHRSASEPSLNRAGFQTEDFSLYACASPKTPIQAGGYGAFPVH

With THHVNILLFM [null-braftide] the “IC50, ELISA-based kinase assay (phosphorylation of kinase-dead MEK)” value was 2500 nM.
